Measurements taken from article PMC5391026.
Each block holds one substance with its values, some of them ahead of it.

What was measured:
[1] = molecular target: HvPho1ΔL78 (HvPho1 lacking the L78 insertion) (barley (Hordeum vulgare)); assay: SEC; single recombinant proteins on HiLoad Superdex S-200 26/60, 25 mM HEPES pH 7.5, 50 mM NaCl; apparent molecular weight by column calibration; peak fractions also analysed by DLS at 25°C
[2] = molecular target: branching enzyme IIb (HvBeIIb) of barley endosperm extract (barley (endogenous in Hordeum vulgare 'QUENCH' endosperm)); assay: SEC; total barley endosperm soluble protein on a 26/60 Superdex S-200 column; fractions analysed by immunoblot (anti-HvPho1, anti-HvBeIIb polyclonal antibodies) and native activity gels; extract with or without 1 mM ATP and 2.5 mM protein phosphatase inhibitor cocktail before SEC
[3] = molecular target: recombinant barley plastidic starch phosphorylase (HvPho1) (barley (Hordeum vulgare)); assay: cross-linking; recombinant HvPho1 (1 mg/ml) in 20 mM HEPES pH 7.5 treated with glutaraldehyde (0.15% v/v) for 0.5 to 30 min at 37°C; SDS-PAGE
[4] = molecular target: recombinant barley plastidic starch phosphorylase (HvPho1) (barley (Hordeum vulgare)); assay: SEC; single recombinant proteins on HiLoad Superdex S-200 26/60, 25 mM HEPES pH 7.5, 50 mM NaCl; apparent molecular weight by column calibration; peak fractions also analysed by DLS at 25°C

stoichiometry N [1]: 2
Substance: HvPho1ΔL78 (HvPho1 lacking the L78 insertion) (enzyme)

stoichiometry N [2]: 2
Substance: branching enzyme IIb (HvBeIIb) of barley endosperm extract

stoichiometry N [3]: 2 | stoichiometry N [4]: 2
Substance: recombinant barley plastidic starch phosphorylase (HvPho1) (enzyme)
